Measurements taken from PMC10499821.

molecular target: FITC-DYRK1B_(394–409) (human) (UniProt Q9Y463); test: fluorescence polarisation; conditions: not given

Substance | Kd [µM]
Nsp16 (from UniProt P0DTD1 6799-7096) (enzyme) | 3

molecular target: Nsp3 Ubl1 (SARS-CoV-2) (UniProt P0DTD1); test: fluorescence polarisation; conditions: not given

Substance | fold higher KD than NCOA2 (1074–1089) [fold]
N_(216–231) peptide (from UniProt P0DTC9 216-231) | 2

molecular target: GST-tagged Nsp16 (UniProt P0DTD1); test: SPOT array alanine scan; conditions: parent: est. 0; read off a plot

Substance | other: signal change in % [%]
ICA1L_(450–465) on the SPOT array M2A | -57
ICA1L_(450–465) on the SPOT array F6A | -50
ICA1L_(450–465) on the SPOT array L15A | -20
ICA1L_(450–465) on the SPOT array P14A | -22
ICA1L_(450–465) on the SPOT array D1A | -25
ICA1L_(450–465) on the SPOT array S16A | -10
ICA1L_(450–465) on the SPOT array L8A | -35
ICA1L_(450–465) on the SPOT array N7A | -48
ICA1L_(450–465) on the SPOT array L12A | -20
ICA1L_(450–465) on the SPOT array D11A | -10
ICA1L_(450–465) on the SPOT array F9A | -88
ICA1L_(450–465) on the SPOT array W5A | -100
ICA1L_(450–465) on the SPOT array S3A | -57

molecular target: GST-tagged Nsp3 ADRP (UniProt P0DTD1); test: SPOT array alanine scan; conditions: parent: est. -10; read off a plot

Substance | other: signal change in % [%]
MBOAT1_(16–31) on the SPOT array G28A | -50
MBOAT1_(16–31) on the SPOT array I29A | -5
MBOAT1_(16–31) on the SPOT array S24A | -90
MBOAT1_(16–31) on the SPOT array L23A | -100
MBOAT1_(16–31) on the SPOT array E25A | -100
MBOAT1_(16–31) on the SPOT array L20A | -5
MBOAT1_(16–31) on the SPOT array G16A | -15
MBOAT1_(16–31) on the SPOT array S17A | -25
MBOAT1_(16–31) on the SPOT array P30A | -45
MBOAT1_(16–31) on the SPOT array L27A | -20
MBOAT1_(16–31) on the SPOT array T18A | 10
MBOAT1_(16–31) on the SPOT array L26A | -45
MBOAT1_(16–31) on the SPOT array P22A | -70
MBOAT1_(16–31) on the SPOT array L31A | -25
MBOAT1_(16–31) on the SPOT array Y19A | 30
MBOAT1_(16–31) on the SPOT array H21A | -55

molecular target: GST-tagged Nsp3 Ubl1 (UniProt P0DTD1); test: SPOT array alanine scan; conditions: parent: est. 0; read off a plot

Substance | other: signal change in % [%]
NCOA2_(1074–1089) on the SPOT array Q1082A | -45
NCOA2_(1074–1089) on the SPOT array L1080A | -85
NCOA2_(1074–1089) on the SPOT array N1089A | -25
NCOA2_(1074–1089) on the SPOT array L1079A | -10
NCOA2_(1074–1089) on the SPOT array G1077A | -5
NCOA2_(1074–1089) on the SPOT array D1075A | -5
NCOA2_(1074–1089) on the SPOT array Y1084A | -62
NCOA2_(1074–1089) on the SPOT array R1088A | -30
NCOA2_(1074–1089) on the SPOT array L1085A | -50
NCOA2_(1074–1089) on the SPOT array D1081A | -20
NCOA2_(1074–1089) on the SPOT array L1083A | -35
NCOA2_(1074–1089) on the SPOT array E1076A | -40
NCOA2_(1074–1089) on the SPOT array L1087A | -40
NCOA2_(1074–1089) on the SPOT array S1074A | 0
